Results on 3 molecules are retold here after patent US20240368250A1 (Ablynx, published 2024).

Test [1] addresses T1, Human FcRn (biotinylated human FcRn) (human, UniProt P61769 21-119).
T1 construct: Biotinylated human FcRn captured on a Series S Sensor Chip SA; also called human neonatal Fc receptor; hFcRn
The test can be described thus: SPR Biacore 8K+, biotinylated hFcRn on SA chip (~700 RU), pH 6.0, bivalent analyte fit (KD1).

Test [2] deals with T1, Human FcRn (biotinylated human FcRn). The test can be described thus: SPR Biacore 8K+, biotinylated hFcRn on SA chip (~700 RU), pH 6.0, bivalent analyte fit (kd1).
The target of test [3] is T2, Human serum albumin (HSA; Sigma-Aldrich Cat No. A8763) (human, UniProt P02768 25-609). The test can be described thus: SPR Biacore 8K+, HSA on C1 chip, pH 7.4, 1:1 fit. In general terms: SPR reads the build-up and loss of mass on a sensor chip optically.
Test [4] addresses T1, Human FcRn (biotinylated human FcRn). Put plainly: SPR Biacore 8K+, biotinylated hFcRn on SA chip (~700 RU), pH 6.0, bivalent analyte fit.
Test [5] has the same target. The test can be described thus: SPR Biacore 8K+, biotinylated hFcRn on SA chip (~700 RU), pH 6.0, bivalent analyte fit (ka1).
In test [6] the target is T3, Mouse serum albumin (MSA; Albumin Bioscience Cat No. 2601) (mouse, UniProt P07724 25-608). The test can be described thus: SPR Biacore 8K+, MSA on C1 chip, pH 7.4, 1:1 fit (off-rate only).
The target of test [7] is T1, Human FcRn (biotinylated human FcRn). The test can be described thus: SPR Biacore 8K+, biotinylated hFcRn on SA chip (~1000-2000 RU), pH 6.0, no HSA, bivalent analyte fit (kd1).
For test [8] the target is unchanged. Put plainly: SPR Biacore 8K+, biotinylated hFcRn on SA chip (~600 RU), pH 6.0, bivalent analyte fit (KD1).
Test [9] concerns the target T3, Mouse serum albumin (MSA; Albumin …). Put plainly: SPR Biacore 8K+, MSA on CM5 chip, pH 6.0, 1:1 fit.
For test [10], the target named is T1, Human FcRn (biotinylated human FcRn). The test can be described thus: SPR Biacore 8K+, biotinylated hFcRn on SA chip (~1000-2000 RU), pH 6.0, no HSA, bivalent analyte fit.
Test [11] shares this target. The test can be described thus: SPR Biacore 8K+, biotinylated hFcRn on SA chip (~1000-2000 RU), pH 6.0, no HSA, bivalent analyte fit (KD1).
Test [12] has the same target. Put plainly: SPR Biacore 8K+, biotinylated hFcRn on SA chip (~600 RU), pH 6.0, bivalent analyte fit (kd1).
Test [13] has as its target T3, Mouse serum albumin (MSA; Albumin …). Put plainly: SPR Biacore 8K+, MSA on CM5 chip, pH 7.4, 1:1 fit.
For test [14], the target named is T1, Human FcRn (biotinylated human FcRn). Put plainly: SPR Biacore 8K+, biotinylated hFcRn on SA chip (~1000-2000 RU), pH 6.0, with 30 uM HSA, bivalent analyte fit (kd1); remark: no good fit possible.
The target is the same in test [15]. The test can be described thus: SPR Biacore 8K+, biotinylated hFcRn on SA chip (~1000-2000 RU), pH 6.0, no HSA, bivalent analyte fit (ka1).
Test [16] has as its target T2, Human serum albumin (HSA; Sigma-Aldrich …). The test can be described thus: SPR Biacore 8K+, HSA on CM5 chip, pH 7.4, 1:1 fit.
For test [17] the target is unchanged. The test can be described thus: SPR Biacore 8K+, HSA on CM5 chip, pH 6.0, 1:1 fit.
Test [18] concerns the target T1, Human FcRn (biotinylated human FcRn). Put plainly: SPR Biacore 8K+, biotinylated hFcRn on SA chip (~1000-2000 RU), pH 6.0, no HSA, 1:1 fit.
Test [19] has the same target. The test can be described thus: SPR Biacore 8K+, biotinylated hFcRn on SA chip (~600 RU), pH 6.0, bivalent analyte fit (ka1).
For test [20] the target is unchanged. Put plainly: SPR Biacore 8K+, biotinylated hFcRn on SA chip (~600 RU), pH 6.0, bivalent analyte fit.
Test [21] deals with T3, Mouse serum albumin (MSA; Albumin …). Put plainly: SPR Biacore 8K+, MSA on C1 chip, pH 7.4, bivalent analyte fit (kd1).
Test [22] shares this target. Put plainly: SPR Biacore 8K+, MSA on C1 chip, pH 7.4, bivalent analyte fit (ka1).
Test [23] has as its target T2, Human serum albumin (HSA; Sigma-Aldrich …). The test can be described thus: SPR Biacore 8K+, HSA on C1 chip, pH 7.4, bivalent analyte fit (kd1).
For test [24], the target named is T3, Mouse serum albumin (MSA; Albumin …). Put plainly: SPR Biacore 8K+, MSA on C1 chip, pH 7.4, bivalent analyte fit (KD1).
Test [25] concerns the target T2, Human serum albumin (HSA; Sigma-Aldrich …). The test can be described thus: SPR Biacore 8K+, HSA on C1 chip, pH 7.4, bivalent analyte fit (KD1).
Test [26] shares this target. The test can be described thus: SPR Biacore 8K+, HSA on C1 chip, pH 7.4, bivalent analyte fit (ka1).

B1: T-0263-00_TP121 (antibody, human IgG1, kappa)
heavy 1: not shown
heavy 2: EVQLVESGGGLVQPGGSLRLSCAASGFNIRDTYIHWVRQAPGKGLEWVARIYPTQGYTRYADSVKGRFTISADTSKNTAYLQMNSLRAEDTAVYYCSRWGGEGFYAMDYWGQGTLVTVSSASTKGPSVFPLAPSSKSTSGGTAALGCLVKDYFPEPVTVSWNSGALTSGVHTFPAVLQSSGLYSLSSVVTVPSSSLGTQTYICNVNHKPSNTKVDKKVEPKSCDKTHTCPPCPAPELLGGPSVFLFPPKPKDTLMISRTPEVTCVVVDVSHEDPEVKFNWYVDGVEVHNAKTKPREEQYNSTYRVVSVLTVLHQDWLNGKEYKCKVSNKALPAPIEKTISKAKGQPREPQVCTLPPSRDELTKNQVSLSCAVKGFYPSDIAVEWESNGQPENNYKTTPPVLDSDGSFFLVSKLTVDKSRWQQGNVFSCSVMHEALHNRFTQKSLSLSPG
light: not shown
notes: Full-length IgG1 knob-in-hole with one C-terminal ALB23002-A (9GS) on chain 1
As for B1, the Kd in test [1] came to 2300 nM; in [3], 76.4 nM. The koff in [2] was 0.16 s⁻¹; in test [3] it was 0.00204 s⁻¹; in [6], 0.0385 s⁻¹. The kon in [3] was determined as 26700 M⁻¹ s⁻¹; in test [5], 71000 M⁻¹ s⁻¹. Moreover, the ka2 in test [4] is 1.8e-05 1/RUs. Besides, the kd2 in [4] amounted to 0.00036 s⁻¹.

B2: TP006 (Fc fusion)
chain 1: DVQLVESGGGLVQPGGSLRLSCAASGLTFSTNPMYWYRQAPGKQRELVASISSRGITNYADSVKGRFTISRDNSKNTVYLQMNSLRPEDTAVYYCRLASLSSGTVYWGQGTLVTVSSDKTHTCPPCPAPEAAGGPSVFLFPPKPKDTLMISRTPEVTCVVVDVSQEDPEVQFNWYVDGVEVHNAKTKPREEQFNSTYRVVSVLTVLHQDWLNGKEYKCKVSNKGLPSSIEKTISKAKGQPREPQVYTLPPCQEEMTKNQVSLWCLVKGFYPSDIAVEWESNGQPENNYKTTPPVLDSDGSFFLYSKLTVDKSRWQEGNVFSCSVMHEALHNHYTQKSLSLSLGGGGGSGGGGSGGGGSGGGGSGGGGSGGGGSGGGGSEVQLVESGGGVVQPGGSLRLSCAASGFTFRSFGMSWVRQAPGKGPEWVSSISGSGSDTLYADSVKGRFTISRDNSKNTLYLQMNSLRPEDTALYYCTIGGSLSRSSQGTLVTVSS
chain 2: DKTHTCPPCPAPEAAGGPSVFLFPPKPKDTLMISRTPEVTCVVVDVSQEDPEVQFNWYVDGVEVHNAKTKPREEQFNSTYRVVSVLTVLHQDWLNGKEYKCKVSNKGLPSSIEKTISKAKGQPREPQVCTLPPSQEEMTKNQVSLSCAVKGFYPSDIAVEWESNGQPENNYKTTPPVLDSDGSFFLVSKLTVDKSRWQEGNVFSCSVMHEALHNHYTQKSLSLSLG
notes: IgG4 FALA Fc (knob-in-hole); irrelevant ISVD N-terminal and ALB23002 C-terminal (35GS) on chain 1; chain 2 is hinge-Fc only
For the molecule B2, the koff in [7] stood at 0.042 s⁻¹; in [9], 0.0026 s⁻¹; in test [12], 0.00402 s⁻¹; in test [13] it was 0.0028 s⁻¹; in [14], 0.0016 s⁻¹; in test [16], 0.0017 s⁻¹. For the same molecule, the koff in [17] worked out at 0.0017 s⁻¹; in test [18], 0.083 s⁻¹. Moreover, the Kd stood at 426 nM in [8]; 84 nM in test [9]; 290 nM in test [11]; 120 nM in test [13]; 67 nM in test [16]; 32 nM in test [17]. This molecule yielded a Kd in test [18] of 18 nM. The kon in [9] turned out to be 31000 M⁻¹ s⁻¹; in test [13], 23000 M⁻¹ s⁻¹; in test [15] it was 140000 M⁻¹ s⁻¹; in [16] it was 26000 M⁻¹ s⁻¹; in test [17], 54000 M⁻¹ s⁻¹; in test [18], 4.5e+06 M⁻¹ s⁻¹. Also, in [19], the on-rate constant (kon) turned out to be 9440 M⁻¹ s⁻¹. Besides, the ka2 was 0.00013 1/RUs in [10] and 10.7 1/RUs in test [20]. In addition, the kd2 in test [10] amounted to 0.002 s⁻¹; in test [20] it was 71.9 s⁻¹.

B3: T-0263-00_TP123 (antibody, human IgG1, kappa)
heavy 1: not shown
heavy 2: EVQLVESGGGLVQPGGSLRLSCAASGFNIRDTYIHWVRQAPGKGLEWVARIYPTQGYTRYADSVKGRFTISADTSKNTAYLQMNSLRAEDTAVYYCSRWGGEGFYAMDYWGQGTLVTVSSASTKGPSVFPLAPSSKSTSGGTAALGCLVKDYFPEPVTVSWNSGALTSGVHTFPAVLQSSGLYSLSSVVTVPSSSLGTQTYICNVNHKPSNTKVDKKVEPKSCDKTHTCPPCPAPELLGGPSVFLFPPKPKDTLMISRTPEVTCVVVDVSHEDPEVKFNWYVDGVEVHNAKTKPREEQYNSTYRVVSVLTVLHQDWLNGKEYKCKVSNKALPAPIEKTISKAKGQPREPQVCTLPPSRDELTKNQVSLSCAVKGFYPSDIAVEWESNGQPENNYKTTPPVLDSDGSFFLVSKLTVDKSRWQQGNVFSCSVMHEALHNRFTQKSLSLSPGGGGGSGGGSEVQLVESGGGVVQPGGSLRLSCAASGFTFRSFGMSWVRQAPGKGPEWVSSISGSGSDTLYADSVKGRFTISRDNSKNTLYLQMNSLRPEDTALYYCTIGGSLSRSSQGTLVTVSSA
light: not shown
notes: Full-length IgG1 knob-in-hole with two C-terminal ALB23002-A (9GS), one on each heavy chain
B3: the Kd in [1] is 2400 nM; in test [24], 560 nM; in test [25], 67.4 nM. Also, the koff in test [21] is 0.0344 s⁻¹; in [2] it was 0.15 s⁻¹; in [23] it was 0.00253 s⁻¹. The kon came to 61400 M⁻¹ s⁻¹ in test [22], 63000 M⁻¹ s⁻¹ in test [5] and 37500 M⁻¹ s⁻¹ in test [26]. Also, the ka2 in [4] was 1.7e-05 1/RUs. In test [4], this molecule returned a kd2 of 0.00059 s⁻¹.

As usually defined, the koff is a measure of how fast the partners let go of each other. Low values mean a long-lived complex, high ones a short-lived complex. For orientation: kon means the rate constant with which the complex forms. A low value points to slower complex formation.
